Where a chain is given by its changes, count along the chain named. Names may count otherwise.
Experiments:
[1] = tested on: Mouse bEnd.3 endothelial cells; test: PS induction by H2O2; format: cell-based
Experimental: Mouse bEnd.3 endothelial cells were seeded at an initial density of 50,000 cells/well. Twenty-fours later cells were incubated with increasing concentrations of H2O2 (from 10 μM to 500 μM) for 1 hour at 37° C. or left untreated. At the end of the incubation, cells were washed 3 times with PBS containing 0.2% gelatin and fixed with 0.25% glutaraldehyde. Identical wells were either stained with anti-PS IgM or trypsinized and evaluated for viability by the Trypan Blue exclusion test. For the anti-PS staining, after blocking with 2% gelatin for 10 min., cells were incubated with 2 μg/ml of anti-PS antibody, followed by detection with anti-mouse IgM-HRP conjugate.

[2] = biological target: recombinant, depyrogenated truncated Tissue Factor (amino acids 1-219), secreted into the periplasm of E. coli from vector pswc7 (human) (UniProt P13726); test: cell-based or functional assay
[3] = tested on: tissue factor on HUVEC cells; test: FACS analysis of tissue factor expression; format: cell-based, human; details: 6 h at 37°; TNFα 500 U/ml, LPS 10 μg/ml, VEGF 1 nM
Experimental: To analyze tissue factor expression on the surface of endothelial cells, HUVEC cells were incubated with TNFα (500 U/ml), LPS (10 μg/ml) or vascular endothelial growth factor (VEGF, 1 nM) alone or in combination for 6 h at 37°. Cells were then detached and stained for surface expression of human tissue factor with a sheep-anti-human tissue factor antibody (Haemochrom, Essen, Germany) and an appropriate FITC-conjugated secondary antibody. Fluorescent cells were detected on a flow cytometer (Becton Dickinson. San Jose, Calif.).

[4] = tested on: citrated mouse or human plasma; test: In vitro coagulation assay on A20 cells; format: cell-based; details: for concentration at which plasma coagulated in 50 seconds: localized on A20 cells via B21-2/10H10; for coagulation times versus tTF219 and Factor VIIa at the same concentrations: Factor VIIa at 1 nM or greater; for reduction of coagulation-inducing activity relative to monomer / tTF219: less active
[5] = tested on: HT29 human colorectal carcinoma; test: Anti-tumor effects and tumor necrosis, HT29; format: in vivo, BALB/c nu/nu mice; details: small HT29 tumors, single agents, 24 hours
[6] = tested on: factor X; test: Factor Xa production assay on A20 cells; format: cell-based; details: Factors II, VII and IX present
[7] = tested on: Factor X on IL-1α-stimulated bEnd.3 cells; test: Chromogenic assay of coaguligand-induced Factor Xa formation; format: cell-based; details: 10 μg per ml
Experimental: The ability of Annexin V to affect Factor Xa formation induced by coaguligand was determined by a chromogenic assay. […] Annexin V was added at concentrations ranging from 0.1 to 10 μg/ml and cells were incubated for 30 min. before addition of diluted Proplex T. The amount of Factor Xa generated in the presence or absence of Annexin V was determined. Each treatment was performed in duplicate and repeated at least twice.

[8] = tested on: L540 Hodgkin tumors; test: Annexin V inhibition of coaguligand-induced thrombosis in vivo; design: species or system SCID mice
Experimental: The ability of Annexin V to inhibit coaguligand-induced thrombosis in vivo was examined in L540 Hodgkin-bearing SCID mice.
Four hours after the last injection mice were anesthetized and perfused with heparinized saline. Tumors were removed, fixed with 4% formalin, paraffin-embedded and stained with hematoxylene-eosin. The number of thrombosed and non-thrombosed blood vessels were counted and the percentage of thrombosis was calculated.

For `OO` [H2O2], the “cells with PS at the cell surface” value ([1]; concentrations as low as 20 μM) was “about 50%”, the “cells with PS translocation” value ([1]; concentrations higher than 100 μM, 1 hour) was ~90% and the cell viability ([1]; low levels of H2O2 (lower than 100 μM)) was 95%.

Molecule Factor VIIa (Sigma) (enzyme) has a Factor Xa generation due to Factor VIIa production on bEnd3 cells; stimulation: 0.5 µg/ml LPS; incubation: tTF-VIIa [2] of 6.25 nkat S2222, a Factor Xa generation due to Factor VIIa production on bEnd3 cells; stimulation: 0.5 µg/ml LPS; tTF-VIIa minus sTF [2] of 3.25 nkat S2222 and a Factor Xa generation due to Factor VIIa production on bEnd3 cells; stimulation: TNFα; incubation: tTF-VIIa [2] of 2.93 nkat S2222. It also gave a Factor Xa generation due to Factor VIIa production on bEnd3 cells; stimulation: TNFα; tTF-VIIa minus sTF [2] of 1.02 nkat S2222, a Factor Xa generation due to Factor VIIa production on bEnd3 cells; stimulation: medium; incubation: tTF-VIIa [2] of 0.95 nkat S2222 and a Factor Xa generation due to Factor VIIa production on bEnd3 cells; stimulation: medium; tTF-VIIa minus sTF [2] of 0.25 nkat S2222. For the same molecule, the Factor Xa generation on bEnd3 cells; stimulation: 0.5 µg/ml LPS; incubation: tTF-VIIa [2] was 3.35 nkat S2222, the Factor Xa generation on bEnd3 cells; stimulation: 0.5 µg/ml LPS; tTF-VIIa minus sTF (background subtracted) [2] was 1.35 nkat S2222 and the Factor Xa generation on bEnd3 cells; stimulation: 10 µg/ml LPS; incubation: tTF-VIIa [2] was 4.46 nkat S2222. The Factor Xa generation on bEnd3 cells; stimulation: 10 µg/ml LPS; tTF-VIIa minus sTF (background subtracted) [2] was 1.55 nkat S2222, the Factor Xa generation on bEnd3 cells; stimulation: TNFα; incubation: tTF-VIIa [2] was 1.51 nkat S2222 and the Factor Xa generation on bEnd3 cells; stimulation: TNFα; tTF-VIIa minus sTF (background subtracted) [2] was 0.84 nkat S2222. The Factor Xa generation on bEnd3 cells; stimulation: medium; incubation: tTF-VIIa [2] was 0.56 nkat S2222 and the Factor Xa generation on bEnd3 cells; stimulation: medium; tTF-VIIa minus sTF (background subtracted) [2] was 0.16 nkat S2222.

For VEGF, the “tissue factor expression on the surface of HUVEC” value [3] was “upregulated tissue factor expression”.

B1: tTF220-cys-C′: tTF with Ile-Cys after amino acid 219, without (His)6 tag (protein)
chain: GSGTTNTVAAYNLTWKSTNFKTILEWEPKPVNQVYTVQISTKSGDWKSKCFYTTDTECDLTDEIVKDVKQTYLARVFSYPAGNVESTGSAGEPLYENSPEFTPYLETNLGQPTIQSFEQVGTKVNVTVEDERTLVRRNNTFLSLRDVFGKDLIYTLYYWKSSSSGKKTAKTNTNEFLIDVDKGENYCFSVQAVIPSRTVNRKSTDSPVECMGQEKGEFREIC
With B1 the “concentration at which plasma coagulated in 50 seconds” value (shortened to “concentration … in 50 seconds”) [4] was 500 pM.

B2: tTF219 (G164A): tTF219 with amino acid 164 (Gly) replaced by Ala (protein)
chain: GSGTTNTVAAYNLTWKSTNFKTILEWEPKPVNQVYTVQISTKSGDWKSKCFYTTDTECDLTDEIVKDVKQTYLARVFSYPAGNVESTGSAGEPLYENSPEFTPYLETNLGQPTIQSFEQVGTKVNVTVEDERTLVRRNNTFLSLRDVFGKDLIYTLYYWKSSSSAKKTAKTNTNEFLIDVDKGENYCFSVQAVIPSRTVNRKSTDSPVECMGQEKGEFRE
With B2 the “necrosis in tumor sections” value [5] was “some necrosis” and the “coagulation times versus tTF219 and Factor VIIa at the same concentrations” value [4] was “only marginally slower coagulation times”.

B3: tTF219 (W158R) (protein)
chain: B2 chain with W159R, A165G
With B3 the “coagulation times versus tTF219 and Factor VIIa at the same concentrations” value [4] was “only marginally slower coagulation times”.

B4: H6-tTF220-cys-C′: tTF219 mutated to encode Ile-Cys after amino acid 219, (His)6 tag (protein)
chain: HHHHHHAMALVPRGSGTTNTVAAYNLTWKSTNFKTILEWEPKPVNQVYTVQISTKSGDWKSKCFYTTDTECDLTDEIVKDVKQTYLARVFSYPAGNVESTGSAGEPLYENSPEFTPYLETNLGQPTIQSFEQVGTKVNVTVEDERTLVRRNNTFLSLRDVFGKDLIYTLYYWKSSSSGKKTAKTNTNEFLIDVDKGENYCFSVQAVIPSRTVNRKSTDSPVECMGQEKGEFRE
For B4, the “concentration … in 50 seconds” value [4] was 500 pM.

B5: H6-tTF221-cys-C′ dimer: chemically conjugated disulfide dimer of H6-tTF221-cys-C′ (protein)
chain: B4 chain
In the case of B5, the “reduction of coagulation-inducing activity relative to monomer / tTF219” value [4] is reported as 4 fold.

B6: IgG-H6—N′-cys-tTF219: one molecule of IgG linked via SMPT to one or two molecules of tTF (conjugate)
chain: HHHHHHAMALVPRGSCGTTNTVAAYNLTWKSTNFKTILEWEPKPVNQVYTVQISTKSGDWKSKCFYTTDTECDLTDEIVKDVKQTYLARVFSYPAGNVESTGSAGEPLYENSPEFTPYLETNLGQPTIQSFEQVGTKVNVTVEDERTLVRRNNTFLSLRDVFGKDLIYTLYYWKSSSSGKKTAKTNTNEFLIDVDKGENYCFSVQAVIPSRTVNRKSTDSPVECMGQEKGEFRE
modifications: left off: large carriers
In the case of B6, the “reduction of coagulation-inducing activity relative to monomer / tTF219” value [4] is reported as 5 fold, the “concentration … in 50 seconds” value [4] is reported as 5000 pM and the “Xa formation, less active than H6—N′-cys-tTF219” value [6] is reported as 2 fold.

B7: Fab′-H6—N′-cys-tTF219: Fab′-SS-tTF conjugate (conjugate)
chain: B6 chain
modifications: left off: another chain or arm of the molecule; large carriers
With B7 the “Xa formation relative to H6—N′-cys-tTF219” value [6] was “as active as H6—N′-cys-tTF219 itself”.

B8: Factor VIIa: recombinant human Factor VIIa (protein)
light: ANAFLEELRPGSLERECKEEQCSFEEAREIFKDAERTKLFWISYSDGDQCASSPCQNGGSCKDQLQSYICFCLPAFEGRNCETHKDDQLICVNENGGCEQYCSDHTGTKRSCRCHEGYSLLADGVSCTPTVEYPCGKIPILEKRNASKPQGR
heavy: IVGGKVCPKGECPWQVLLLVNGAQLCGGTLINTIWVVSAAHCFDKIKNWRNLIAVLGEHDLSEHDGDEQSRRVAQVIIPSTYVPGTTNHDIALLRLHQPVVLTDHVVPLCLPERTFSERTLAFVRFSLVSGWGQLLDRGATALELMVLNVPRLMTQDCLQQSRKVGDSPNITEYMFCAGYSDGSKDSCKGDSGGPHATHYRGTWYLTGIVSWGQGCATVGHFGVYTRVSQYIEWLQKLMRSEPRPGVLLRAPFP
With B8 the “necrosis in tumor sections” value [5] was “some necrosis”.

B9: H6-tTF219-cys-C′: (His)6 tTF219 with a Cys after amino acid 219 (protein)
chain: HHHHHHAMALVPRGSGTTNTVAAYNLTWKSTNFKTILEWEPKPVNQVYTVQISTKSGDWKSKCFYTTDTECDLTDEIVKVKQTYLARVFSYPAGNVESTGSAGEPLYENSPEFTPYLETNLGQPTIQSFEQVGTKVNVTVEDRTLVRRNNTFLSLRDVFGKDLIYTLYYWKSSSSGKKTAKTNTNEFLIDVDKGENYCFSVQAVIPSRTVNRKSTDSPVECMGQEKGEFREC
With B9 the “concentration … in 50 seconds” value [4] was 3000 pM.

B10: tTF221-cys-C′: tTF with Ile-Phe-Cys after amino acid 219, without (His)6 tag (protein)
chain: GSGTTNTVAAYNLTWKSTNFKTILEWEPKPVNQVYTVQISTKSGDWKSKCFYTTDTECDLTDEIVKDVKQTYLARVFSYPAGNVESTGSAGEPLYENSPEFTPYLETNLGQPTIQSFEQVGTKVNVTVEDERTLVRRNNTFLSLRDVFGKDLIYTLYYWKSSSSGKKTAKTNTNEFLIDVDKGENYCFSVQAVIPSRTVNRKSTDSPVECMGQEKGEFREIFC
For B10, the “concentration … in 50 seconds” value [4] was 500 pM.

B11: Annexin V: binds to PS with high affinity (protein, UniProt P08758 2-320, looked up)
Annexin A5: AQVLRGTVTDFPGFDERADAETLRKAMKGLGTDEESILTLLTSRSNAQRQEISAAFKTLFGRDLLDDLKSELTGKFEKLIVALMKPSRLYDAYELKHALKGAGTNEKVLTEIIASRTPEELRAIKQVYEEEYGSSLEDDVVGDTSGYYQRMLVVLLQANRDPDAGIDEAQVEQDAQALFQAGELKWGTDEEKFITIFGTRSVSHLRKVFDKYMTISGFQIEETIDRETSGNLEQLLLAVVKSIRSIPAYLAETLYYAMKGAGTDDHTLIRVMVSRSEIDLFNIRKEFRKNFATSLYSMIKGDTSGDYKKALLLLCGEDD
In the case of B11, the “inhibition of factor Xa production” value [7] is reported as 58%, the “coaguligand-induced anti-tumor effects after pre-treatment” value ([8]; 100 μg Annexin V, 2 hours before 40 μg anti-VCAM-1•tTF) is reported as “completely abolished” and the tumor morphology ([8]; 100 μg alone) is reported as “did not alter tumor morphology”.

Reference: patent publication US20030129193A1 (priority 2001, published 2003)
